# Results from US20200079833A1 (AstraZeneca / MedImmune, published 2020).
# Starred links: 1 amine or outer side, 2 acyl side, 3 side chain; linkers in the order of their positions; H or OH if unused. Non-standard residues stand in square brackets, D forms with d. Groups on a side chain read outwards from the residue. Primed or numbered codes have the meaning given here. No end group written: not given here. *: point of attachment. γGlu = O=C(O)[C@H](CCC(=O)[*:2])N[*:1]; Stearoyl = CCCCCCCCCCCCCCCCCC(=O)*; Palmitoyl = CCCCCCCCCCCCCCCC(=O)*; αMeF = C[C@](N)(Cc1ccccc1)C(=O)O; αMeK = C[C@](N)(CCCCN)C(=O)O; αMeS = C[C@](N)(CO)C(=O)O; PEG2′ = not defined here; Aib = CC(C)(N)C(=O)O
# T1: glucose-dependent insulinotropic peptide (gastric inhibitory polypeptide) receptor (human, UniProt P48546 22-466)
# T1 sequence (looked up): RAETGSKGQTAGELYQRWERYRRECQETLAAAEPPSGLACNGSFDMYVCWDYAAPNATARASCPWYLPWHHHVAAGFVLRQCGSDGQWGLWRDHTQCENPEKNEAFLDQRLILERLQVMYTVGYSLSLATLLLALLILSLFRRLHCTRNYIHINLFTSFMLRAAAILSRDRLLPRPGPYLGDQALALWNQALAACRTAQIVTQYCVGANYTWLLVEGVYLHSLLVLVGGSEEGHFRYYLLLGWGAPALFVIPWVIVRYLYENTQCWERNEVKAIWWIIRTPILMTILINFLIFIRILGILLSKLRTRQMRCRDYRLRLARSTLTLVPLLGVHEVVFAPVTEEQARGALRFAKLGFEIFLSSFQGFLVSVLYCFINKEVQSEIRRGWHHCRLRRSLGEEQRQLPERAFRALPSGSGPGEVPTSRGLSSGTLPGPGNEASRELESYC
# Tests used:
# Experiment in all cases: cell-based or functional assay
# glucagon receptor = glucagon receptor (human, UniProt P47871 26-477)
# glucagon receptor, sequence (P47871 26-477): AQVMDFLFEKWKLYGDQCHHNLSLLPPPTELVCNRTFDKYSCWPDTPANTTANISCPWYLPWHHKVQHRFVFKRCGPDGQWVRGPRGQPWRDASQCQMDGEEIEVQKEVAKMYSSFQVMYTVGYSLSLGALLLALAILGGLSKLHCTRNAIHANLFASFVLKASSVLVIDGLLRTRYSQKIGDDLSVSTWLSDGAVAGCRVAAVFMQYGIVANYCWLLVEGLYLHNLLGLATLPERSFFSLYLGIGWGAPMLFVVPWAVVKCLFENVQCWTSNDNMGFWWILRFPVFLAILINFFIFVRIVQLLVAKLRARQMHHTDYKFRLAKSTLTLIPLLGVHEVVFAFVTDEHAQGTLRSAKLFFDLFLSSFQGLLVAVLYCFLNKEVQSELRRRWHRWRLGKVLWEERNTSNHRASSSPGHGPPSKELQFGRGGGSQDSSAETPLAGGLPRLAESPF
# [1] = biological target: T1, glucose-dependent insulinotropic …
# GLP-1 receptor = GLP-1 receptor (human, UniProt P43220 24-463)
"Primary assay EC50 (cAMP), n1 (glucagon receptor) [nM]","Primary assay EC50 (cAMP), n2 (glucagon receptor) [nM]","Primary assay EC50 (cAMP), n1 [1] [nM]","Primary assay EC50 (cAMP), n2 [1] [nM]","Primary assay EC50 (cAMP), Mean pM GLP-1R (GLP-1 receptor) [pM]","Primary assay EC50 (cAMP), n1 (GLP-1 receptor) [nM]","Primary assay EC50 (cAMP), n2 (GLP-1 receptor) [nM]",Binder
27,27,27,27,33,0.033,0.033,H[Aib]EGS[αMeF]TSDVSS[αMeF]LEGEAAKE[αMeF]IA[αMeF]VVKGGK([γGlu-Palmitoyl])-NH2 (N-terminus assumed; SMILES CCCCCCCCCCCCCCCC(=O)N[C@@H](CCC(=O)NCCCC[C@H](NC(=O)CNC(=O)CNC(=O)[C@H](CCCCN)NC(=O)[C@@H](NC(=O)[C@@H](NC(=O)[C@](C)(Cc1ccccc1)NC(=O)[C@H](C)NC(=O)[C@@H](NC(=O)[C@](C)(Cc1ccccc1)NC(=O)[C@H](CCC(=O)O)NC(=O)[C@H](CCCCN)NC(=O)[C@H](C)NC(=O)[C@H](C)NC(=O)[C@H](CCC(=O)O)NC(=O)CNC(=O)[C@H](CCC(=O)O)NC(=O)[C@H](CC(C)C)NC(=O)[C@](C)(Cc1ccccc1)NC(=O)[C@H](CO)NC(=O)[C@H](CO)NC(=O)[C@@H](NC(=O)[C@H](CC(=O)O)NC(=O)[C@H](CO)NC(=O)[C@@H](NC(=O)[C@](C)(Cc1ccccc1)NC(=O)[C@H](CO)NC(=O)CNC(=O)[C@H](CCC(=O)O)NC(=O)C(C)(C)NC(=O)[C@@H](N)Cc1c[nH]cn1)[C@@H](C)O)C(C)C)[C@@H](C)CC)C(C)C)C(C)C)C(N)=O)C(=O)O) [SEQ ID NO 39]
85,26,85,26,1170,1.8,0.57,H[Aib]EGS[αMeF]TSDVSS[αMeF]LEGEAAK([PEG2′-PEG2′-γGlu-Stearoyl])E[αMeF]IA[αMeF]VVKGG-NH2 [SEQ ID NO 40]
25,25,25,25,72,0.062,0.082,H[Aib]EGS[αMeF]TSDVSS[αMeF]LEGEAAKE[αMeF]IA[αMeF]VVKGGK([PEG2′-PEG2′-γGlu-Stearoyl])-NH2 [SEQ ID NO 38]
94,28,94,28,147,0.24,0.051,H[Aib]EGS[αMeF]TSDVSS[αMeF]LEGEAAK([γGlu-Palmitoyl])E[αMeF]IA[αMeF]VVKGG-NH2 (N-terminus assumed; SMILES CCCCCCCCCCCCCCCC(=O)N[C@@H](CCC(=O)NCCCC[C@H](NC(=O)[C@H](C)NC(=O)[C@H](C)NC(=O)[C@H](CCC(=O)O)NC(=O)CNC(=O)[C@H](CCC(=O)O)NC(=O)[C@H](CC(C)C)NC(=O)[C@](C)(Cc1ccccc1)NC(=O)[C@H](CO)NC(=O)[C@H](CO)NC(=O)[C@@H](NC(=O)[C@H](CC(=O)O)NC(=O)[C@H](CO)NC(=O)[C@@H](NC(=O)[C@](C)(Cc1ccccc1)NC(=O)[C@H](CO)NC(=O)CNC(=O)[C@H](CCC(=O)O)NC(=O)C(C)(C)NC(=O)[C@@H](N)Cc1c[nH]cn1)[C@@H](C)O)C(C)C)C(=O)N[C@@H](CCC(=O)O)C(=O)N[C@@](C)(Cc1ccccc1)C(=O)N[C@H](C(=O)N[C@@H](C)C(=O)N[C@@](C)(Cc1ccccc1)C(=O)N[C@H](C(=O)N[C@H](C(=O)N[C@@H](CCCCN)C(=O)NCC(=O)NCC(N)=O)C(C)C)C(C)C)[C@@H](C)CC)C(=O)O) [SEQ ID NO 41]

# More lines, now with the values behind:
Binder,"Primary assay EC50 (cAMP), n1 (glucagon receptor) [nM]","Primary assay EC50 (cAMP), n2 (glucagon receptor) [nM]","Primary assay EC50 (cAMP), n1 [1] [nM]","Primary assay EC50 (cAMP), n2 [1] [nM]","Primary assay EC50 (cAMP), Mean pM GLP-1R (GLP-1 receptor) [pM]","Primary assay EC50 (cAMP), n1 (GLP-1 receptor) [nM]","Primary assay EC50 (cAMP), n2 (GLP-1 receptor) [nM]"
H[Aib]EGS[αMeF]TDDV[αMeS]S[αMeF]LEGEAAK([γGlu-Palmitoyl])E[αMeF]IA[αMeF]VV[αMeK]GG-NH2 (N-terminus assumed; SMILES CCCCCCCCCCCCCCCC(=O)N[C@@H](CCC(=O)NCCCC[C@H](NC(=O)[C@H](C)NC(=O)[C@H](C)NC(=O)[C@H](CCC(=O)O)NC(=O)CNC(=O)[C@H](CCC(=O)O)NC(=O)[C@H](CC(C)C)NC(=O)[C@](C)(Cc1ccccc1)NC(=O)[C@H](CO)NC(=O)[C@](C)(CO)NC(=O)[C@@H](NC(=O)[C@H](CC(=O)O)NC(=O)[C@H](CC(=O)O)NC(=O)[C@@H](NC(=O)[C@](C)(Cc1ccccc1)NC(=O)[C@H](CO)NC(=O)CNC(=O)[C@H](CCC(=O)O)NC(=O)C(C)(C)NC(=O)[C@@H](N)Cc1c[nH]cn1)[C@@H](C)O)C(C)C)C(=O)N[C@@H](CCC(=O)O)C(=O)N[C@@](C)(Cc1ccccc1)C(=O)N[C@H](C(=O)N[C@@H](C)C(=O)N[C@@](C)(Cc1ccccc1)C(=O)N[C@H](C(=O)N[C@H](C(=O)N[C@@](C)(CCCCN)C(=O)NCC(=O)NCC(N)=O)C(C)C)C(C)C)[C@@H](C)CC)C(=O)O) [SEQ ID NO 37],92,28,92,28,4500,7.3,1.7
H[Aib]EGS[αMeF]TSDV[αMeS]S[αMeF]LEGEAAK([γGlu-Palmitoyl])E[αMeF]IA[αMeF]VV[αMeK]GG-NH2 (N-terminus assumed; SMILES CCCCCCCCCCCCCCCC(=O)N[C@@H](CCC(=O)NCCCC[C@H](NC(=O)[C@H](C)NC(=O)[C@H](C)NC(=O)[C@H](CCC(=O)O)NC(=O)CNC(=O)[C@H](CCC(=O)O)NC(=O)[C@H](CC(C)C)NC(=O)[C@](C)(Cc1ccccc1)NC(=O)[C@H](CO)NC(=O)[C@](C)(CO)NC(=O)[C@@H](NC(=O)[C@H](CC(=O)O)NC(=O)[C@H](CO)NC(=O)[C@@H](NC(=O)[C@](C)(Cc1ccccc1)NC(=O)[C@H](CO)NC(=O)CNC(=O)[C@H](CCC(=O)O)NC(=O)C(C)(C)NC(=O)[C@@H](N)Cc1c[nH]cn1)[C@@H](C)O)C(C)C)C(=O)N[C@@H](CCC(=O)O)C(=O)N[C@@](C)(Cc1ccccc1)C(=O)N[C@H](C(=O)N[C@@H](C)C(=O)N[C@@](C)(Cc1ccccc1)C(=O)N[C@H](C(=O)N[C@H](C(=O)N[C@@](C)(CCCCN)C(=O)NCC(=O)NCC(N)=O)C(C)C)C(C)C)[C@@H](C)CC)C(=O)O) [SEQ ID NO 34],93,93,93,93,43,0.039,0.048
HXEGTFTSDVSSYLEGQAAKEFIAWLVKGRK (Aib 2; K(ε-(PEG)2-(PEG)2-γE-Stearate) after R30; C-terminal amide) [SEQ ID NO 6],22,22,22,22,5.1,0.0048,0.0053
H[Aib]EGS[αMeF]TDDV[αMeS]S[αMeF]LEGEAAK([PEG2′-PEG2′-γGlu-Stearoyl])E[αMeF]IA[αMeF]VV[αMeK]GG-NH2 [SEQ ID NO 36],84,25,84,25,44200,63,25
H[Aib]EGS[αMeF]TDDV[αMeS]S[αMeF]LEGEAA[αMeK]E[αMeF]IA[αMeF]VV[αMeK]GGK([γGlu-Palmitoyl])-NH2 (N-terminus assumed; SMILES CCCCCCCCCCCCCCCC(=O)N[C@@H](CCC(=O)NCCCC[C@H](NC(=O)CNC(=O)CNC(=O)[C@](C)(CCCCN)NC(=O)[C@@H](NC(=O)[C@@H](NC(=O)[C@](C)(Cc1ccccc1)NC(=O)[C@H](C)NC(=O)[C@@H](NC(=O)[C@](C)(Cc1ccccc1)NC(=O)[C@H](CCC(=O)O)NC(=O)[C@](C)(CCCCN)NC(=O)[C@H](C)NC(=O)[C@H](C)NC(=O)[C@H](CCC(=O)O)NC(=O)CNC(=O)[C@H](CCC(=O)O)NC(=O)[C@H](CC(C)C)NC(=O)[C@](C)(Cc1ccccc1)NC(=O)[C@H](CO)NC(=O)[C@](C)(CO)NC(=O)[C@@H](NC(=O)[C@H](CC(=O)O)NC(=O)[C@H](CC(=O)O)NC(=O)[C@@H](NC(=O)[C@](C)(Cc1ccccc1)NC(=O)[C@H](CO)NC(=O)CNC(=O)[C@H](CCC(=O)O)NC(=O)C(C)(C)NC(=O)[C@@H](N)Cc1c[nH]cn1)[C@@H](C)O)C(C)C)[C@@H](C)CC)C(C)C)C(C)C)C(N)=O)C(=O)O) [SEQ ID NO 35],89,27,89,27,3260,4.9,1.7
